Assay [1] has as its target T1, Human IL2RG (interleukin-2 receptor subunit gamma), wild type (human, UniProt P31785 23-369).
T1 construct: also called wild type human IL2RG; WT IL2RG
T1 sequence: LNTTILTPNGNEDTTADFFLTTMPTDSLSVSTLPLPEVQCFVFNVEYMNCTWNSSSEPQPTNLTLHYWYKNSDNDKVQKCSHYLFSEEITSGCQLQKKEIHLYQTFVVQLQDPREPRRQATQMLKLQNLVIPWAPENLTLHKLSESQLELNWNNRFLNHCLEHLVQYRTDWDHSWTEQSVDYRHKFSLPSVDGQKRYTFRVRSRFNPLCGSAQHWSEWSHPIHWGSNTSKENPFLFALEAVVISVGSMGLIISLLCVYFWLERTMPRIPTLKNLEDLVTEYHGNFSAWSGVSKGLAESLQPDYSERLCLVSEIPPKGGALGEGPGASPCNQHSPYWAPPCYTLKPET
Briefly: flow cytometry on iPSC-derived NK cells. For orientation: In flow cytometry, cells or beads pass a laser one at a time.

Assay [2] addresses T2, murine Il2rg (murine, UniProt P34902 23-369).
T2 construct: whole, on cells; also called mouse IL2RG; murine IL2rg receptor
T2 sequence (looked up): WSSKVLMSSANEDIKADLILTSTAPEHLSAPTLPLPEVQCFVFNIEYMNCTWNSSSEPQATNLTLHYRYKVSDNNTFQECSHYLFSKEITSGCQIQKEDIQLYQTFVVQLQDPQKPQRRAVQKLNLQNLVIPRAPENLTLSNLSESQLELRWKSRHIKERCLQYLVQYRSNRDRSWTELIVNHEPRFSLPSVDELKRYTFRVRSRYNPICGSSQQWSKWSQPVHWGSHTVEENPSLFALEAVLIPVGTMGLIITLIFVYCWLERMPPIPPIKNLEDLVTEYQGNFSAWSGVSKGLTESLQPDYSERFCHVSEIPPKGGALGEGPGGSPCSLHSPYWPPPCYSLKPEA
Briefly: stated in Example 1 for donor T cells of wild-type mice; no binding assay described.

Assay [3] has as its target T3, recombinant human IL2RG extracellular domain (human, UniProt P31785 23-262).
T3 construct: also called IL2RG ectodomain; ECD
T3 sequence: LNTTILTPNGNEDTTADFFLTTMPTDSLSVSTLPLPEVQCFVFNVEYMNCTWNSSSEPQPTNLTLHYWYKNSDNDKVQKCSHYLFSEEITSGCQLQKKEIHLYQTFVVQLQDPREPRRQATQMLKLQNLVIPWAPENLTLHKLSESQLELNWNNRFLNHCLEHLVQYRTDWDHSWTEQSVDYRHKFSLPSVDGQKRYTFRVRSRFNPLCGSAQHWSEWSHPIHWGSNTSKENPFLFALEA
Briefly: cryoEM of the complex.

B1: REGN7257 (antibody, human IgG4 S228P, kappa, V domains shown)
VH: EVQLVESGGGLVQPGGSLRLSCAASGFIFSSYEMHWVRQAPGKGLEWISYISSSGTTIYYADSVKGRFTISRDNAKNSLYLHMNSLRAEDTAVYYCTRARITGTFDVFDIWGQGTMVTVSS
VL: DIQMTQSPSSLSASVGDRVTITCRASQSISSYLNWYQQKPGKAPKLLIFAASNLQSGVPSRFSGSRSGTDFTLTISSLQPEDFATYYCQQNYNIPYTFGQGTKLEIKR
notes: also called H4H12889P; anti-IL2RG antibody
Consider B1, for which the binding result in assay [1] is listed as “binds”; in assay [2], “no binding”.

B2: REGN7257 Fab region (Fab, V domains shown)
VH: B1 VH
VL: DIQMTQSPSSLSASVGDRVTITCRASQSISSYLNWYQQKPGKAPKLLIFAASNLQSGVPSRFSGSRSGTDFTLTISSLQPEDFATYYCQQNYNIPYTFGQGTKLEIK
notes: Fab region of REGN7257 used for cryoEM
Consider B2, for which the binding result in assay [3] was “binds”.

Source of the values: US20240390460A1 (Regeneron, published 2024).
